Laboratory results published in the supplement of paper PMC9170038.

Test system: MS2 coat protein
Test: apparent KD of MS2 coat protein; designed switch direction (-1 OFF switch, 1 ON switch): -1; higher = weaker reporter binding
In short: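 Designed RNA switches with common flanks were transcribed on Illumina chips by stalled E. coli RNA polymerase and titrated with SNAP-549-labelled MS2 coat protein, from 0.7 or 1.5 nM doubling to 3 µM, in Tris-HCl pH 7.5 buffer with KCl, MgCl2, BSA, DTT, tRNA and Tween-20. Steps lasted 0.8–1.5 h (lowest) to 10–20 min (highest). Titrations ran without input, with 200 uM small-molecule ligand, or with an oligonucleotide input. Normalised cluster fluorescence was curve-fitted, and apparent KD is the per-design median over clusters.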

[1] = input ligand: microRNA oligo, concentration not stated
[2] = Eterna round: R95, input ligand: microRNA oligo, concentration not stated
[3] = Eterna round: R95, input ligand: FMN 200 uM
[4] = Eterna round: R95, input ligand: none

| Sequence | apparent KD of MS2 coat protein (input ligand: FMN 200 uM) | apparent KD of MS2 coat protein (input ligand: none) | apparent KD of MS2 coat protein [1] | apparent KD of MS2 coat protein [2] | apparent KD of MS2 coat protein [3] | apparent KD of MS2 coat protein [4] |
| --- | --- | --- | --- | --- | --- | --- |
| GCACUGCGAGGAUAUACAUGAGGAUCACCCAUGUGUCGGCAGCCAUGGUAGUACAAAUGUAGAAGGCGCGUAAA [EX3 #50] (Eterna round: R97, puzzle: Exclusion 3) | 85.6 nM | 587 nM |  |  |  |  |
| UGAGAGUGAGGAUAUACGUCGCUGGUCCGGAUGGACGCAUGACAUGAGGAUCACCCAUGUAGAAGGCAUUUCCC [Enxela Mod 6 - Jieux - Exclusion 2] (Eterna round: R97, puzzle: Exclusion 2) | 75.2 nM | 26.9 nM |  |  |  |  |
| UCAAGUUUUUAGAUUCUUAACAUGAGGAUCACCCAUGUGCUCGUCUUGUUGUACUAUCACUCGAAAGUGAUAGUACA (Eterna round: R97, puzzle: Sensor, turn-off variant 1) | 43.5 nM | 46.4 nM |  |  |  |  |
| GUAAUUAAUGUAGGAUAUGCAAGGCGAACCUAAGCAGAAGGACAUGAGGAUCACCCAUGUAAUGCGGUCUGCGUACAGAUCGCU [salish99_ExNG1_r4_007] (Eterna round: R96, puzzle: Exclusion NG 1) | 47.8 nM | 24.2 nM | 13.2 nM |  |  |  |
| CUUCUGUCAGGAUAUGCGAAUCACCGCUGGGUCAGCGGCGAGCAGAAGGGACAUGAGGAUCACCCAUGUAAAAU [Quriveer] (Eterna round: R97, puzzle: Exclusion 4) | 211 nM | 51.3 nM |  |  |  |  |
| CUUGUGUGAGGAUAUGAAUUACCUGGUCAAACAGGCUCCUGUCAGAAGGCACAUGAGGAUCACCCAUGUGGGCA [Dibilela] (Eterna round: R97, puzzle: Exclusion 4) | 121 nM | 310 nM |  |  |  |  |
| UGUUGUUACGUAGGAUAUCCACCAACAGGUGGAAGGAUAUGGAAACAGAAGGUUCGCCAACAGGCGGAGAAGGACGGGUUAACA [pwkr exNG2 2xF7 2xFMN.22] (Eterna round: R96, puzzle: Exclusion NG 2) | 42.5 nM | 32.3 nM | 11.5 nM |  |  |  |
| GACUGCUGAGGAUAUACAUGAGGAUCACCCAUGUGCUUCAGCUACGAGAGUAGCAUUGGUAGAAGGUAGUAGUC [LRO-Excl3-04] (puzzle: Exclusion 3) |  |  |  | 11.1 nM |  |  |
| UAACAUGUCUGAGGAUAUCUGCACGAUUAGUGCAGAGAAGGCAGAACAUGAGGAUCACCCAUGUAGAUCAUUAAUUAAUUAAUU [ENG1/7-B1] (Eterna round: R96, puzzle: Exclusion NG 1) | 712 nM | 344 nM | 288 nM |  |  |  |
| CCGAGCAGACGGAGAUCCAACAUGAGGAUCACCCAUGUCUCAAAAGCUUUUUGCUCGUCUUAUCCUCCUCUGUUCUC [Legedi] (puzzle: Sensor v3, turn-off variant 1) |  |  |  | 200 nM | 27.6 nM | 25.7 nM |
| CAGCUGUGAGGAUAUACAUGAGGAUCACCCAUGUUAAGGAAGUGGUGUAUAUUGUAGUGUAGAAGGCACUUGUC [JR_Ex3_Sub026] (Eterna round: R97, puzzle: Exclusion 3) | 234 nM | 123 nM |  |  |  |  |
| AAUGAUUGACGAGGAUAUUGUGUUAGAUCACGACGAGAAGGCGUCUGUCACAUGAGGAUCACCCAUGUGAGCCUGGUGGAUGGG [Ex NG1 #79] (Eterna round: R96, puzzle: Exclusion NG 1) | 41.7 nM | 26.7 nM | 22.3 nM |  |  |  |
| CUUCGGCGAGGAUAUUACGAGAACGACAUGAGGAUCACCCAUGUGAUCGAGGUUGCCUCGUAAGAAGGCGCAUAUA [Reederedle] (Eterna round: R97, puzzle: Exclusion 5) | 1050 nM | 244 nM |  |  |  |  |
| AAGCCACAUGAGGAUCACCCAUGUCAGGAUAUCUCGAAAAGCAUAGAAAUAUGCGAAGAGAGAAGGGACUACUC [ChP Ext 10-04-2015 #4] (puzzle: Exclusion 1) |  |  |  | 42.7 nM |  |  |
| AGUUAUUCAGGAUAUGGUGUGUUAUACAUGAGGAUCACCCAUGUGGGUCAUGGUUAGGCCUCAGAAGGGAAUGUUA [salish99_ex5_r4_125] (Eterna round: R97, puzzle: Exclusion 5) | 796 nM | 1100 nM |  |  |  |  |
| AGCGAAUAAGUAGGAUAUGAGAAUAGAUAGAGCUCAGAAGGACUACAUGAGGAUCACCCAUGUAAAGUCUUGAGGCUGCGUGGU [Prohibition 14 - Jieux - Exclusion NG 1] (Eterna round: R96, puzzle: Exclusion NG 1) | 10.8 nM | 13.7 nM | 11.3 nM |  |  |  |
| CCCAUGCCUGAGGAUAUGCUGUACAAAAGUACUGCAGAAGGCGGGACAUGAGGAUCACCCAUGUGGCGAAAGCC [Omei Ex G6] (Eterna round: R97, puzzle: Exclusion 6) | 67 nM | 326 nM |  |  |  |  |

| Sequence | apparent KD of MS2 coat protein (input ligand: FMN 200 uM) | apparent KD of MS2 coat protein (input ligand: none) | apparent KD of MS2 coat protein [1] | apparent KD of MS2 coat protein [2] | apparent KD of MS2 coat protein [3] | apparent KD of MS2 coat protein [4] |
| --- | --- | --- | --- | --- | --- | --- |
| AUCUCCUCUGUCAGGAUAUAUAAACUGUUGCAGUGGUAGAAGGGACAUGAGGAUCACCCAUGUAAUAUAAAUAA [Bivege] (puzzle: Brourd's mod of Exclusion 4) |  |  |  | 26.6 nM |  |  |
| ACAUGAGGAUCACCCAUGUAAUGAAGGGUACUAUAUUAAACGUAGGAUAUCGAUGUAAGUUUGUACGAGAAGGACGAUUGCCUU [JR_ExcNG3_Sub052] (Eterna round: R96, puzzle: Exclusion NG 3) | 48.2 nM | 84.1 nM | 39.5 nM |  |  |  |
| GGUCAGAUGGUAGGAUAUCCAUAUCGAGUGACCCUUUCAUAACAUGAGGAUCACCCAUGUCGGUGGGAGAAGGGCCGUACGGCG [salish99_ExNG02_R04_010] (Eterna round: R96, puzzle: Exclusion NG 2) | 43.9 nM | 41.7 nM | 32.8 nM |  |  |  |
| CACCCUGAUGACAAAUUACAUGAGGAUCACCCAUGUGCCUCGCAGGAUAUCCCAGCACGUCGCAAGGAGAAGGGCGACGCGCCA [Ralerira] (Eterna round: R96, puzzle: Exclusion NG 3) | 31.5 nM | 41.3 nM | 23.9 nM |  |  |  |
| GCGAAAGCAAGCAAGUGAAACAUGAGGAUCACCCAUGUACUCAUUUGCUCGUCUUGUAAGCUAUGCGAAAGCAUAGC [Mat - Sensor v3 - turn-off var 1 - Eli Mod - D51] (puzzle: Sensor v3, turn-off variant 1) |  |  |  | 9.67 nM | 10.7 nM | 9.72 nM |
| CCAAGCUUGUUCAUUAUCCACAUGAGGAUCACCCAUGUCUUGGCAAUUAUGACCUGCCCGUCAGGAGCUCGUCUUAU [Sensor-V1 #37] (Eterna round: R97, puzzle: Sensor, turn-off variant 1) | 316 nM | 346 nM |  |  |  |  |
| GUCAUCAAACAUGGGAUAAACAUGAGGAUCACCCAUGUAUACAAGUUUUUUGCUCGUCUUAUAAUAAGUUUGAUGAC [Antenna 6 - Jieux - Sensor, turn-off variant 1] (Eterna round: R97, puzzle: Sensor, turn-off variant 1) | 16.4 nM | 15.3 nM |  |  |  |  |
| AGCCCUGCAGGAUAUGUCGAGGAUAACAUGAGGAUCACCCAUGUGACCGAUUGUUAGACUGCAGAAGGGCAUGGGA [salish99_ex5_r4_304] (Eterna round: R97, puzzle: Exclusion 5) | 278 nM | 70.6 nM |  |  |  |  |
| GAGAACGUAGGAUAUACAUGAGGAUCACCCAUGUGAGGAAGGAGUAGGAAGAGUGGAAGUAGAAGGACGGAGAG [JR_Exclu3_Sub072] (puzzle: Exclusion 3) |  |  |  | 21.9 nM | 47.4 nM | 34.9 nM |
| GAUUAUGCGAGCUUUAGGGACAUGAGGAUCACCCAUGUUCGUCUUAUUAGUCUGGGUGCGCUAACAUACCUAAAUCU [JMF 53] (puzzle: Sensor v3, turn-off variant 1) |  |  |  | 148 nM | 90.1 nM | 175 nM |
| CAGUACUGAGGAUAUACAUGAGGAUCACCCAUGUGUGUGAGAUUUGUGUGGUUGUUUUGUAGAAGGCGGUGCUG [JR_Ex3_Sub031] (Eterna round: R97, puzzle: Exclusion 3) | 19.1 nM | 91.2 nM |  |  |  |  |
| GUUCUUCCUGUGAGGAUAUCCAUGUGUCGGUGUGUGGAGAAGGUACAUGAGGAUCACCCAUGUCACCCGCGUUA (Eterna round: R97, puzzle: Brourd's mod of Exclusion 4) | 24.3 nM | 19.2 nM |  |  |  |  |
| GGGAUGUCAGGAUAUCCGAAAGUCUGCCAAUACGGCAGACAGGAGAAGGGACAUGAGGAUCACCCAUGUAAAGA [Aedxear] (puzzle: Exclusion 4) |  |  |  | 59.4 nM | 120 nM | 49.4 nM |
| GAUAAAGGGCAGGAUAUGGCUGGAAAAUAUCCGCCAGAAGGGCCCACAUGAGGAUCACCCAUGUGUGGUCCGCG [Lere] (puzzle: Exclusion 6) |  |  |  | 17.3 nM | 52.3 nM | 19.1 nM |
| AUCAGCUCGUCAGGAUAUGCACAUGAGGAUCACCCAUGUAAGAUCAAGCUGCUUCGGCAGCAAGUGCAGAAGGGACGAGCUGAU [ENG2/9-B2] (Eterna round: R96, puzzle: Exclusion NG 2) | 151 nM | 229 nM | 177 nM |  |  |  |
| UUUUAGAGAGGAUAUAUAUAGUGAAACAUGAGGAUCACCCAUGUAAUUAUAUGGAUGUAAAUAGAAGGCUCAUUUA [JL-ex5-3.02] (puzzle: Exclusion 5) |  |  |  | 31.1 nM | 35.7 nM | 30.7 nM |
| UAAAAGACAGGAUAUACUAACAACGACUUGAGGAUCACCCAAGUGGUAAGAGUCGAUCAUGUAGAAGGGUUAAAAC [Atsoce] (Eterna round: R97, puzzle: Exclusion 5) | 74.3 nM | 28 nM |  |  |  |  |
